This note sets out measurements from US20240271115A1.

The target of this series is Human IgG in human serum.

B1: Recombinant IdeS expressed from codon-optimized cDNA IdeS^op2 (pGEX-IdeS^op2), designated Ab-C (protein)
chain: RKRCYSTSAVVLAAVTLFALSVDRGVIADSFSANQEIRYSEVTPYHVTSVWTKGVTPPAKFTQGEDVFHAPYVANQGWYDITKTFNGKDDLLCGAATAGNMLHWWFDQNKEKIEAYLKKHPDKQKIMFGDQELLDVRKVINTKGDQTNSELFNYFRDKAFPGLSARRIGVMPDLVLDMFINGYYLNVYKTQTTDVNRTYQEKDRRGGIFDAVFTRGDQSKLLTSRHDFKEKNLKEISDLIKKELTEGKALGLSHTYANVRINHVINLWGADFDSNGNLKAIYVTDSDSNASIGMKKYFVGVNSAGKVAISAKEIKEDNIGAQVLGLFTLSTGQDSWNQTN
For the protein B1, the “IgG cleavage, PAGE-Coomassie stain, purified normalized IdeS samples incubated with human serum for 1 h” value is reported as “The results showed more effective IgG cleavage by IdeS^op2”.
